Experimental data as given in article PMC7305164.

Target: Sso7d(W24A/R43E)-HTLV-1 IN(E156Q) (HTLV-1)
Assay: cryo-EM structure; SEC-purified HTLV-1 intasome (strand-transfer complex) of Sso7d-IN(E156Q), B56γ(11–380) and branched viral U5 LTR/target DNA; 3.7 Å, C2 symmetry imposed

Substance: Sso7d(W24A/R43E)-HTLV-1 IN(E156Q) (enzyme)
- stoichiometry N: 4
